± gives the uncertainty stated by the source.

For 167 variants, abundance fitness results are on record in the Human Domainome abundance scans (Beltran et al. 2025).

B1: SWI/SNF complex subunit SMARCC1, residues 620 to 663; numbered along this chain, Q92922 (parent)
chain: GREWTEQETLLLLEALEMYKDDWNKVSEHVGSRTQDECILHFLR
B2: SWI/SNF complex subunit SMARCC2, residues 599 to 641; numbered along this chain, Q8TAQ2 (parent)
chain: REWTEQETLLLLEALEMYKDDWNKVSEHVGSRTQDECILHFLR

Variants of B1 are the subject of one series. In words: abundance fitness (aPCA) (normalised: wild type 0, dead -1); higher = more abundant; growth selection in yeast, the domain comes from the species named. The settings on record: Homo sapiens.
With R2W, the abundance fitness is -0.023 ± 0.13.

In the case of R2T, the abundance fitness worked out at 0.174 ± 0.077.

Turning to R2G, the abundance fitness was -0.051 ± 0.11. Still for that read-out and setting: the same measure for R2L: -0.719 ± 0.11; for R2D: 0.237 ± 0.11. As to R2Q, the abundance fitness is -0.298 ± 0.35. On to R2K, for which the abundance fitness was found to be 0.244 ± 0.067. For R2N, the abundance fitness was 0.288 ± 0.068. Take R2S: the abundance fitness was -0.147 ± 0.065. As to R2E, the abundance fitness is 0.145 ± 0.095. Consider R2C, for which the abundance fitness came to 0.084 ± 0.14. Regarding R2V, the abundance fitness came out at 0.086 ± 0.1.

On to R2F, for which the abundance fitness turned out to be 0.253 ± 0.15.

For R2I, the abundance fitness was found to be 0.415 ± 0.096. As to R2A, the abundance fitness was found to be 0.288 ± 0.12. Same read-out and setting: the same measure for G1F: -0.122 ± 0.2; for G1Y: 0.191 ± 0.12; for G1R: -0.383 ± 0.12. For the variant G1H, the abundance fitness is -0.147 ± 0.15. For G1D, the abundance fitness is 0.277 ± 0.1.

In the case of G1A, the abundance fitness was 0.081 ± 0.2. For the variant G1W, the abundance fitness is -0.293 ± 0.28. For G1I, the abundance fitness stood at 0.128 ± 0.1.

A further series covers variants of B2. Described as above. The settings on record: Homo sapiens.
Consider D21P, for which the abundance fitness was -0.919 ± 0.16. D21K: the abundance fitness was -0.065 ± 0.18. For D21M, the abundance fitness was -0.747 ± 0.3. As for E13G, the abundance fitness is -0.215 ± 0.074. In the case of E13F, the abundance fitness was -0.887 ± 0.27. As to E13R, the abundance fitness is -0.172 ± 0.067. Consider F41E, for which the abundance fitness was 0.354 ± 0.11. On to F41L, for which the abundance fitness is -0.487 ± 0.072. On to F41V, for which the abundance fitness is -0.452 ± 0.083. Consider F41R, for which the abundance fitness amounted to 0.501 ± 0.084. Take F41M: the abundance fitness amounted to 0.059 ± 0.091. For E7G, the abundance fitness is -0.756 ± 0.12.

Turning to S31G, the abundance fitness was determined as 0.054 ± 0.086. Consider S31H, for which the abundance fitness was -0.085 ± 0.14.

S31N: the abundance fitness amounted to 0.057 ± 0.099. For S31T, the abundance fitness worked out at 0.287 ± 0.078. Same read-out and setting: under S31F stands -0.411 ± 0.19; under E2G, 0.184 ± 0.095; under E2C, -0.52 ± 0.18. Still for that read-out and setting: under D20T stands -0.412 ± 0.12.

Consider D20Q, for which the abundance fitness came to 0.244 ± 0.062. As to D20M, the abundance fitness is -0.361 ± 0.36. For D20K, the abundance fitness worked out at 0.054 ± 0.11. For the variant W22C, the abundance fitness was -0.792 ± 0.13. As for W22A, the abundance fitness was -0.791 ± 0.11. In the case of Q34L, the abundance fitness is -0.073 ± 0.073.

With Q34F, the abundance fitness is -0.029 ± 0.074. Still for that read-out and setting: the same measure for Q34M: -0.282 ± 0.16.

As to Q34W, the abundance fitness was -0.577 ± 0.17. Still for that read-out and setting: under G30T stands -0.031 ± 0.078. Take G30C: the abundance fitness is -0.064 ± 0.12. Still for that read-out and setting: under G30D stands -0.07 ± 0.14; under G30R, -0.211 ± 0.088; under R32Y, -0.426 ± 0.18.

In the case of R32G, the abundance fitness is -0.727 ± 0.11. For the variant R32Q, the abundance fitness is -0.313 ± 0.15. Same read-out and setting: the same measure for R32P: -1.36 ± 0.45; for R32C: -0.432 ± 0.13. The same measure, in the same setting: under R32K stands 0.207 ± 0.1; under R32N, -0.909 ± 0.24; under D35K, 0.047 ± 0.34. Same read-out and setting: under R1Y stands 0.033 ± 0.095. Take L12C: the abundance fitness was -0.351 ± 0.33.

For the variant V25Y, the abundance fitness is -0.798 ± 0.42. As for V25S, the abundance fitness was -0.528 ± 0.11.

On to V25F, for which the abundance fitness is -0.349 ± 0.17. As to E5D, the abundance fitness was -0.692 ± 0.32. The same measure, in the same setting: under E5N stands -0.362 ± 0.097; under H40Y, 0.272 ± 0.08. Consider H40V, for which the abundance fitness is -0.376 ± 0.17. Take H40L: the abundance fitness was -0.41 ± 0.081. Same read-out and setting: under H40Q stands -0.052 ± 0.17; under L15F, -0.211 ± 0.36; under L15K, 0.586 ± 0.096. Consider L15M, for which the abundance fitness stood at 0.436 ± 0.093.

For L15T, the abundance fitness is 0.301 ± 0.095.

As for Y18I, the abundance fitness is -0.152 ± 0.15. Turning to Y18F, the abundance fitness is -0.417 ± 0.17.

Turning to Y18L, the abundance fitness is -0.731 ± 0.14. The same measure, in the same setting: the same measure for Y18G: -0.163 ± 0.073; for W3C: -0.518 ± 0.19. Consider W3L, for which the abundance fitness was -0.168 ± 0.075. In the case of W3G, the abundance fitness is -0.424 ± 0.13. In the case of E16R, the abundance fitness came out at 0.062 ± 0.06. Turning to K24Q, the abundance fitness came to 0.046 ± 0.086. Consider K24E, for which the abundance fitness came to 0.154 ± 0.098. As for K24C, the abundance fitness was -0.148 ± 0.094. On to K24L, for which the abundance fitness was found to be 0.054 ± 0.065. With K24R, the abundance fitness amounted to 0.064 ± 0.066.

Turning to K19S, the abundance fitness was -0.287 ± 0.065. Consider K19E, for which the abundance fitness is 0.019 ± 0.091. For K19H, the abundance fitness was -0.272 ± 0.074. On to T4E, for which the abundance fitness is -0.042 ± 0.13. Regarding T4G, the abundance fitness was -0.794 ± 0.24.

Take L39I: the abundance fitness is -0.21 ± 0.31. In the case of L39A, the abundance fitness is 0.154 ± 0.073. For the variant L10W, the abundance fitness is -0.325 ± 0.13.

Consider L10C, for which the abundance fitness was -0.057 ± 0.15. As for L10N, the abundance fitness is -0.195 ± 0.099. On to L10M, for which the abundance fitness came to 0.03 ± 0.25. Still for that read-out and setting: under N23C stands 0.123 ± 0.068; under N23T, 0.033 ± 0.069; under N23K, 0.037 ± 0.072. For Q6I, the abundance fitness is -0.04 ± 0.37. In the case of Q6W, the abundance fitness was -0.025 ± 0.1. With Q6K, the abundance fitness was -0.167 ± 0.12.

As for Q6P, the abundance fitness stood at 0.026 ± 0.069.

Turning to A14V, the abundance fitness is -1.08 ± 0.17. Take A14G: the abundance fitness was 0.062 ± 0.064. On the same count and under the same terms, under A14Q stands -0.797 ± 0.27; under A14H, -1.05 ± 0.2. Take E36A: the abundance fitness is -0.446 ± 0.12. For E36W, the abundance fitness was -0.855 ± 0.19.

Regarding E36Q, the abundance fitness came out at 0.08 ± 0.33. Consider T33A, for which the abundance fitness was determined as 0.045 ± 0.17. With T33I, the abundance fitness is -0.721 ± 0.35. As to T33F, the abundance fitness is -0.684 ± 0.37. With T33L, the abundance fitness was -0.019 ± 0.075.

Take T33K: the abundance fitness came out at 0.042 ± 0.2.

Turning to H28F, the abundance fitness is -0.401 ± 0.23. Still for that read-out and setting: the same measure for H28G: -0.341 ± 0.11. Turning to H28I, the abundance fitness was -0.265 ± 0.1. In the case of H28M, the abundance fitness is -0.341 ± 0.15. Same read-out and setting: the same measure for H28N: -0.853 ± 0.27; for H28Q: -0.26 ± 0.26; for H28T: -0.256 ± 0.22. Still for that read-out and setting: the same measure for M17A: -0.224 ± 0.071; for M17Y: -0.084 ± 0.11. As for M17L, the abundance fitness amounted to 0.052 ± 0.074. With M17N, the abundance fitness is 0.027 ± 0.12. M17K: the abundance fitness was 0.077 ± 0.084. L9S: the abundance fitness was found to be 0.144 ± 0.055. Same read-out and setting: the same measure for L9F: -0.16 ± 0.11; for L9P: -0.307 ± 0.072.

Regarding L9C, the abundance fitness came to 0.134 ± 0.093.

Take L9A: the abundance fitness came to 0.142 ± 0.064. Consider L9K, for which the abundance fitness was 0.308 ± 0.091. For the variant S26L, the abundance fitness is -0.27 ± 0.087. Same read-out and setting: under S26W stands -0.517 ± 0.1; under S26P, -0.444 ± 0.12; under S26T, 0.115 ± 0.08. For C37G, the abundance fitness is -0.833 ± 0.15. In the case of C37R, the abundance fitness was -0.697 ± 0.079. C37T: the abundance fitness is -0.525 ± 0.17. With C37P, the abundance fitness is -0.708 ± 0.092.

With T8L, the abundance fitness was -0.001 ± 0.082. Take T8Q: the abundance fitness was 0.316 ± 0.069. Still for that read-out and setting: the same measure for T8D: -0.177 ± 0.33; for T8P: -0.843 ± 0.15. As to T8V, the abundance fitness stood at 0.02 ± 0.082. As for L42V, the abundance fitness was 0.343 ± 0.06. On to L42A, for which the abundance fitness turned out to be 0.334 ± 0.078. On to L42G, for which the abundance fitness was 0.447 ± 0.065. On the same count and under the same terms, the same measure for E27W: -0.495 ± 0.12; for E27P: -0.677 ± 0.25; for V29D: -0.714 ± 0.24.

V29L: the abundance fitness is -0.07 ± 0.083. On to V29S, for which the abundance fitness is -1.3 ± 0.37. For the variant V29A, the abundance fitness is -0.695 ± 0.17. Consider I38F, for which the abundance fitness is 0.023 ± 0.097.

On to I38A, for which the abundance fitness was found to be 0.149 ± 0.13. Take I38R: the abundance fitness came to 0.428 ± 0.09. Consider I38M, for which the abundance fitness was determined as 0.151 ± 0.07. Turning to I38G, the abundance fitness was 0.401 ± 0.11.
